Reference: PMC6704128, “Binding of the protein ICln to α-integrin contributes to the activation of ICl_(swell) current” (Scientific Reports, 2019)
Each block holds one binder with its values, some of them ahead of it.

Columns and labels:
[1] = biological target: T1, TcICln (truncated Canis familiaris ICln, ICln159X), N-terminal His6-tagged (Canis familiaris, UniProt P35521 1-158); experiment: NMR titration; 1H-15N HSQC of 15N-labelled ICln (0.8 mM) without and with the integrin peptide (equimolar amount for TcICln); 50 mM K2HPO4, pH 6.6, 90% H2O/10% D2O, 25 °C, 800 MHz; settings: both partners purified
T1 construct: ICln, Canis familiaris, truncation mutant ICln159X lacking the C-terminal part (stop at position 159); pleckstrin homology domain-like fold; NCBI NP_001003288.1; Uniformly 15N-labelled; The last residue (158) is worked out from the name ICln159X; also called truncated form of cICln; source: E. coli BL21(DE3), purified (IMAC HisTrap, Superdex 75)
T1 sequence (looked up): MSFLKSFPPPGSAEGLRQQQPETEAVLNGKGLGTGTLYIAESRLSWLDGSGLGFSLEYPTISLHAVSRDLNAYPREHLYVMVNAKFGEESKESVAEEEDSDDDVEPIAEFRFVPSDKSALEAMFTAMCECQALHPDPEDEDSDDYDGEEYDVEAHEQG

[2] = biological target: T2, αIIbs-YFP (transmembrane and intracellular portion, amino acids 987-1039, of the human integrin αIIb chain, … (human, UniProt P08514-1 987-1039)); experiment: FRET or BRET; acceptor photobleaching; HEK293 Phoenix cells; FRET efficiency in 4-5 plasma membrane ROIs of each cell; settings: partners not purified
T2 construct: integrin αIIb chain, human, amino acids 987-1039 (transmembrane and intracellular portion); numbers count on NCBI NP_000410.2; The methods say 'YFP was fused to the Ct of ICln'; also called αIIb-short; αIIb short; source: NIH-3T3 fibroblasts or HEK293 Phoenix cells, transiently transfected (pEYFP-N1), in cells; not shown: YFP, C-terminal, kept

[3] = biological target: T2, αIIbs-YFP (transmembrane and …); experiment: FRET or BRET; acceptor photobleaching; living NIH-3T3 fibroblasts in isotonic solution; CFP donor, YFP acceptor; FRET efficiency in three plasma membrane ROIs of each cell; settings: partners not purified

T2 sequence (P08514 987-1039): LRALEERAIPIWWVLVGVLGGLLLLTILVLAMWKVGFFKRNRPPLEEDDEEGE

binding result [1]: binds
B1: integrin peptide (1018)MWKVGFFKRNR(1028) (peptide)
peptide: MWKVGFFKRNR
notes: integrin αIIb chain, human, residues 1018-1028; numbers count on NCBI NP_000410.2; also called integrin αIIb peptide with the KVGFFKR motif; source: synthetic peptide

ratio of the FRET efficiency to that of CFP and αIIbs-YFP [2]: 2.7
ratio of the FRET efficiency to that of CFP and αIIbs-YFP [3]: 2.9
B2: CFP-ICln (Canis familiaris ICln, wild type, CFP fused to the N-terminus) (natural protein, UniProt P35521 1-235, looked up)
chain: MSFLKSFPPPGSAEGLRQQQPETEAVLNGKGLGTGTLYIAESRLSWLDGSGLGFSLEYPTISLHAVSRDLNAYPREHLYVMVNAKFGEESKESVAEEEDSDDDVEPIAEFRFVPSDKSALEAMFTAMCECQALHPDPEDEDSDDYDGEEYDVEAHEQGQGDIPTFYTYEEGLSHLTAEGQATLERLEGMLSQSVSSQYNMAGVRTEDSTRDYEDGMEVDTTPTVAGQFEDADVDH
notes: ICln, Canis familiaris (cDNA from the MDCK cell line), ORF of full length ICln; NCBI NP_001003288.1; The same construct was used in two cell lines (NIH-3T3 and HEK293 Phoenix); the assays tell them apart; also called CFP-ICln wt; cICln; source: NIH-3T3 fibroblasts or HEK293 Phoenix cells, transiently transfected (pECFP-C1), in cells; not shown: CFP, N-terminal, kept
